Laboratory results from patent US20120231005A1 (Merck Sharp & Dohme, published 2012).

Assays:
human PCSK9 [1] = target: T1, human PCSK9 (human, UniProt Q8NBP7 31-692, limits assumed); assay: affinity table, IgG2 (Biacore)
T1 construct: It carried an AlexaFluor647 label in the TR-FRET assay only; also called hPCSK9; wild type human PCSK9
Method: (§1) The affinities of those IgG molecules were also measured by Biacore assay. Briefly, anti-human IgG monoclonal antibody form Human Antibody Capture Kit provided by Biacore was immobilized on CM5 chips at a level of 8000 to 10000 RU. […] After each round injection, the sensor chip surface was regenerated by 30 second injection of 3M Magnesium Chloride.

mouse PCSK9 = target: T2, mouse PCSK9 (mouse, UniProt Q80W65 35-694, limits assumed); assay: affinity table, IgG2 (Biacore)
T2 construct: also called Mouse PCSK9 9
T2 sequence (Q80W65 35-694 limits assumed): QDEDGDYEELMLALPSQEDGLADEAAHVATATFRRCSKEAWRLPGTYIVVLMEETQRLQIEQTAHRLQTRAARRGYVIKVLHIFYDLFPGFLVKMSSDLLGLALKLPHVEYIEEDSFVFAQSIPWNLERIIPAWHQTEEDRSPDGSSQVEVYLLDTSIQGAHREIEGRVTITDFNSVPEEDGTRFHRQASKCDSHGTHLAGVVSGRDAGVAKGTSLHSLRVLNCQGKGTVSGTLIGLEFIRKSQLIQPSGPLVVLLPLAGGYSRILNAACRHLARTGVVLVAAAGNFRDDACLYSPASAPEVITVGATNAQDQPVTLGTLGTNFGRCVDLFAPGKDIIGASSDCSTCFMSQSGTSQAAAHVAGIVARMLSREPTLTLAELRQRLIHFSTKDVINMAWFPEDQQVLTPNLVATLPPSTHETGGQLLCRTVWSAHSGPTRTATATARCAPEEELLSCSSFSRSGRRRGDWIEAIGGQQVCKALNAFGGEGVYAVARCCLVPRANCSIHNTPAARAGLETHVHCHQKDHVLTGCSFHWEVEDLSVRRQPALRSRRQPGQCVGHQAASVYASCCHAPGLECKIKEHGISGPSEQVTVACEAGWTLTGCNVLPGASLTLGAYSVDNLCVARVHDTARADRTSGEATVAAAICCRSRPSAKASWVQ
Method: as §1

rat PCSK9 = target: T3, rat PCSK9 (rat, UniProt P59996 31-691, limits assumed); assay: affinity table, IgG2 (Biacore)
T3 construct: also called rPCSK9
T3 sequence (P59996 31-691 limits assumed): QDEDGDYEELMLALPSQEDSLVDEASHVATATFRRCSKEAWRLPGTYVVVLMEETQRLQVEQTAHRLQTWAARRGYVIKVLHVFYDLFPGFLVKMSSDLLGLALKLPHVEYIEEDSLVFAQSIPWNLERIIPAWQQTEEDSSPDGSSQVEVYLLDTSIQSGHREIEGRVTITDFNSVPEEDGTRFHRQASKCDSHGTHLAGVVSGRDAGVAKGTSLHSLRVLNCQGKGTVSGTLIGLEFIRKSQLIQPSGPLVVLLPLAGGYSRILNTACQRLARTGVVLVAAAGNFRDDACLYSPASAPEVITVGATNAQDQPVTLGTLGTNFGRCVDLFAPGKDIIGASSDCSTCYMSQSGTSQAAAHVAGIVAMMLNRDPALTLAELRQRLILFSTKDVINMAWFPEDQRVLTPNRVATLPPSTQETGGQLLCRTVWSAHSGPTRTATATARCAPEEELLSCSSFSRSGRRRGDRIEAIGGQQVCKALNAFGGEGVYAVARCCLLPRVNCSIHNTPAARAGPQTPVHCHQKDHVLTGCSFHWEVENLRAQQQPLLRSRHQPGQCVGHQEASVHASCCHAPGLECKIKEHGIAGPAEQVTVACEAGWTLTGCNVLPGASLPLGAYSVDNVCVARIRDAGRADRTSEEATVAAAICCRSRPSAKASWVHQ
Method: as §1

rhesus PCSK9 (rhesus) [2] = assay: affinity table, IgG2 (Biacore)
human PCSK9 [3] = target: T1, human PCSK9; assay: cell-based or functional assay
human PCSK9 [4] = target: T1, human PCSK9; assay: affinity table, IgG2 (Biacore); remark: listed apart in the source
Method: as §1

rhesus PCSK9 (rhesus) [5] = assay: SPR (Biacore); IgG captured on anti-human IgG, PCSK9 injected
human PCSK9 [6] = target: T1, human PCSK9; assay: as above
Method: as §1

rhesus PCSK9 = rhesus PCSK9 (rhesus, UniProt A8T644 31-692 (Pan troglodytes entry), limits assumed); assay: cell-based or functional assay
rhesus PCSK9 (rhesus) [7] = assay: cell-based or functional assay
human PCSK9 [8] = target: T1, human PCSK9; assay: TR-FRET; antibody titrated against 10 nM AF647-PCSK9 and about 4 nM Eu-LDLR ectodomain
Method: After at least 90 minutes of equilibration, samples were read in a Rubystar reader (BMG Corp.) using 20 flashes per well, a 50 μsec integration delay, and a 200 μsec total integration time.

human FcRn = target: T4, human FcRn (human, UniProt P55899 24-297; P61769 21-119, limits assumed); assay: Biacore; human FcRn immobilised, 100 nM mAb bound at pH 6.0, read 5 s into dissociation at pH 7.3
T4 construct: Beta-2-microglobulin is not mentioned for the purified protein; also called human FeRn
T4 sequence (P55899 24-297 limits assumed, form in doubt, chain 1 of 2): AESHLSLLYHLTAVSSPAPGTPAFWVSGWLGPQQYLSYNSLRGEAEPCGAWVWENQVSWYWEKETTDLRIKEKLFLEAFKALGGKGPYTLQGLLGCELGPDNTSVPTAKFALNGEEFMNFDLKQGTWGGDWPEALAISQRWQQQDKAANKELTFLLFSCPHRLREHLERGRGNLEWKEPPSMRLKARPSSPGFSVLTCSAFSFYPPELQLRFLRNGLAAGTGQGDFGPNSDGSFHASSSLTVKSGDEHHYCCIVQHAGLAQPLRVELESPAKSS
T4 sequence (P61769 21-119 limits assumed, form in doubt, chain 2 of 2): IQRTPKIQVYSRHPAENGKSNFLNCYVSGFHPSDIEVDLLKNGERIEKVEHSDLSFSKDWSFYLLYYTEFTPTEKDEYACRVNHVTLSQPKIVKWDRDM
Method: The neutral pH dissociation of mAbs from human FeRn was measured by SPR using a Biacore T-100 instrument. Briefly, purified FeRn protein was immobilized onto a Biacore CM5 biosensor chip and PBSP (50 mM NaPO4, 150 mM NaCl and 0.05% (v/v) Surfactant 20) pH 7.3 was used as running buffer. The mAbs were diluted with PBSP pH 6.0 to 100 nM, allowed to bind FcRn for 3 minutes to reach equilibrium and followed by 1 minute of dissociation in pH 7.3 running buffer. A report point (Stability) was inserted at 5 seconds after the end of mAb binding and the “% bound” was calculated as RUStability/RUBinding (%).

T1 sequence (Q8NBP7 31-692 limits assumed): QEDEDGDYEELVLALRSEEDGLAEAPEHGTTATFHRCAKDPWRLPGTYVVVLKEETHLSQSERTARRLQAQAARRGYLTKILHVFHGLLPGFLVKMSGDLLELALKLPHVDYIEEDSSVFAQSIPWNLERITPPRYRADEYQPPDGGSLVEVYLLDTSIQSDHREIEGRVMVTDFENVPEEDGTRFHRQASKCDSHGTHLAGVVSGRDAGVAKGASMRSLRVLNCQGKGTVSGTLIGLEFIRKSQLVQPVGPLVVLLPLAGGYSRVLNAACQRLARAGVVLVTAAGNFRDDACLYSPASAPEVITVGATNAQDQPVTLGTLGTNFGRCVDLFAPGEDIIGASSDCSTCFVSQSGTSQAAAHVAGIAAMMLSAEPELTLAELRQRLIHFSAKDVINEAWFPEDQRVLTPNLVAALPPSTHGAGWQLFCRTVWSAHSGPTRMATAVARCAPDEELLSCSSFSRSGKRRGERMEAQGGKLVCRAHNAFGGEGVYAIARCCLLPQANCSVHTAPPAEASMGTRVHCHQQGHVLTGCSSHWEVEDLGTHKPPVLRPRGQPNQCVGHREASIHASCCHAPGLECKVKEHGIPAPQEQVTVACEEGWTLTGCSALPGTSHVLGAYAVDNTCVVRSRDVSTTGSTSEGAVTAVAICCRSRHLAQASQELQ

| Binder | Kd (human PCSK9 [1]) [nM] | Kd (mouse PCSK9) [nM] | Kd (rat PCSK9) [nM] | Kd (rhesus PCSK9 (rhesus) [2]) [nM] | IgG IC50 (nM), inhibition of PCSK9 on LDL uptake (Exopolar assay) (human PCSK9 [3]) [nM] | Kd (human PCSK9 [4]) [nM] | binding result (mouse PCSK9) | binding result (rat PCSK9) | Kd (rhesus PCSK9 (rhesus) [5]) [nM] | Kd (human PCSK9 [6]) [nM] | IgG IC50 (nM), inhibition of PCSK9 on LDL uptake (Exopolar assay) (rhesus PCSK9) [nM] | IgG IC50 (nM), inhibition of PCSK9 on LDL uptake (Exopolar assay) (rhesus PCSK9 (rhesus) [7]) [nM] | IC50 (human PCSK9 [8]) [nM] | % bound (RUStability/RUBinding) (human FcRn) [%] |
| --- | --- | --- | --- | --- | --- | --- | --- | --- | --- | --- | --- | --- | --- | --- |
| AX132 IgG2 (antibody, V domains shown) VH: EVQLLESGGGLVQPGGSLRLSCKASGYTFSSYGMYWVRQAPGKGLEWIGWIDPGSGGTKYNEKFKGKATISRDNSKNTLYLQMNSLRAEDTAVYYCARERYGYYFDYWGQGTLVTVSS VL: EIVLTQSPATLSLSPGERATITCRASQYVGSYLNWYQQKPGQAPRLLIYDASNRATGIPARFSGSGSGTDFTLTISSLEPEDFAVYYCQVWDSSPPVVFGGGTKVEIK | 6.16 | 2.76 | 100 |  |  |  |  |  |  |  |  |  |  |  |
| AX1DG IgG2 (antibody, V domains shown, IgG2; also called AXIDG) VH: EVQLLESGGGLVQPGGSLRLSCKASGFTFTSYYMHWVRQAPGKGLEWIGRINPDSGSTKYNEKFKGRATISRDNSKNTLYLQMNSLRAEDTAVYYCARGGRLSWDFDVWGQGTLVTVSS VL: DIQMTQSPSSLSASVGDRVTITCRASQDISRYLAWYQQKPGKAPKLLIYAASSLQSGVPSRFSGSGSGTDFTLTISSLQPEDFATYYCAAYDYSLGGYVFGGGTKVEIK | 4.61 |  |  | 8.1 | 7.4 | 4.61 | no binding | no binding | 3.6 | 4.61 |  |  |  |  |
| AX9 IgG1 (antibody, V domains shown) VH: EVQLLESGGGLVQPGGSLRLSCKASGYTFSSYWMHWVRQAPGKGLEWIGRIDPYNGGTKYNEKFKGKATISRDNSKNTLYLQMNSLRAEDTAVYYCARYGYYLGSYAMDYWGQGTLVTVSS VL: DIQMTQSPSSLSASVGDRVTITCRASQDVSKYLAWYQQKPGKAPKLLIYAASSLQSGVPSRFSGSGSGTDFTLTISSLQPEDFATYYCQVYDSSPNAYVFGGGTKVEIK |  |  |  |  | 10.7 |  |  |  |  |  | 30.3 |  |  |  |
| AX9 IgG2 (antibody) heavy: EVQLLESGGGLVQPGGSLRLSCKASGYTFSSYWMHWVRQAPGKGLEWIGRIDPYNGGTKYNEKFKGKATISRDNSKNTLYLQMNSLRAEDTAVYYCARYGYYLGSYAMDYWGQGTLVTVSSASTKGPSVFPLAPCSRSTSESTAALGCLVKDYFPEPVTVSWNSGALTSGVHTFPAVLQSSGLYSLSSVVTVPSSNFGTQTYTCNVDHKPSNTKVDKTVERKCCVECPPCPAPPVAGPSVFLFPPKPKDTLMISRTPEVTCVVVDVSHEDPEVQFNWYVDGVEVHNAKTKPREEQFNSTFRVVSVLTVVHQDWLNGKEYKCKVSNKGLPAPIEKTISKTKGQPREPQVYTLPPSREEMTKNQVSLTCLVKGFYPSDIAVEWESNGQPENNYKTTPPMLDSDGSFFLYSKLTVDKSRWQQGNVFSCSVMHEALHNHYTQKSLSLSPGK light: DIQMTQSPSSLSASVGDRVTITCRASQDVSKYLAWYQQKPGKAPKLLIYAASSLQSGVPSRFSGSGSGTDFTLTISSLQPEDFATYYCQVYDSSPNAYVFGGGTKVEIKRTVAAPSVFIFPPSDEQLKSGTASVVCLLNNFYPREAKVQWKVDNALQSGNSQESVTEQDSKDSTYSLSSTLTLSKADYEKHKVYACEVTHQGLSSPVTKSFNRGEC | 20.6 |  |  | 8.82 | 25.5 |  | no binding | no binding | 8.82 | 20.6 |  | 28.6 | 4.1 | 1 |
| AX1 IgG2 (antibody, Made in HEK293 cells or in glycoengineered Pichia) heavy: EVQLLESGGGLVQPGGSLRLSCKASGFTFTSYYMHWVRQAPGKGLEWIGRINPDSGSTKYNEKFKGRATISRDNSKNTLYLQMNSLRAEDTAVYYCARGGRLSWDFDVWGQGTLVTVSSASTKGPSVFPLAPCSRSTSESTAALGCLVKDYFPEPVTVSWNSGALTSGVHTFPAVLQSSGLYSLSSVVTVPSSNFGTQTYTCNVDHKPSNTKVDKTVERKCCVECPPCPAPPVAGPSVFLFPPKPKDTLMISRTPEVTCVVVDVSHEDPEVQFNWYVDGVEVHNAKTKPREEQFNSTFRVVSVLTVVHQDWLNGKEYKCKVSNKGLPAPIEKTISKTKGQPREPQVYTLPPSREEMTKNQVSLTCLVKGFYPSDIAVEWESNGQPENNYKTTPPMLDSDGSFFLYSKLTVDKSRWQQGNVFSCSVMHEALHNHYTQKSLSLSPGK light: DIQMTQSPSSLSASVGDRVTITCRASQDISRYLAWYQQKPGKAPKLLIYAASSLQSGVPSRFSGSGSGTDFTLTISSLQPEDFATYYCAAYDYSLGGYVFGDGTKVEIKRTVAAPSVFIFPPSDEQLKSGTASVVCLLNNFYPREAKVQWKVDNALQSGNSQESVTEQDSKDSTYSLSSTLTLSKADYEKHKVYACEVTHQGLSSPVTKSFNRGEC | 5.75 |  |  | 8.61 | 7 | 5.75 | no binding | no binding | 4.2 | 5.75 |  | 11.2 | 1 | 5 |
| AX189 IgG2 (antibody, the leaderless entry is used) heavy: EVQLLESGGGLVQPGGSLRLSCKASGYTFSSYWMHWVRQAPGKGLEWIGRIDPYNGGTKYNEKFKGKATISRDNSKNTLYLQMNSLRAEDTAVYYCARYGYYLGSYAMDYWGQGTLVTVSSASTKGPSVFPLAPCSRSTSESTAALGCLVKDYFPEPVTVSWNSGALTSGVHTFPAVLQSSGLYSLSSVVTVPSSNFGTQTYTCNVDHKPSNTKVDKTVERKCCVECPPCPAPPVAGPSVFLFPPKPKDTLMISRTPEVTCVVVDVSHEDPEVQFNWYVDGVEVHNAKTKPREEQFNSTFRVVSVLTVVHQDWLNGKEYKCKVSNKGLPAPIEKTISKTKGQPREPQVYTLPPSREEMTKNQVSLTCLVKGFYPSDIAVEWESNGQPENNYKTTPPMLDSDGSFFLYSKLTVDKSRWQQGNVFSCSVMHEALHNHYTQKSLSLSPGK light: DIQMTQSPSSLSASVGDRVTITCRASQDVSRYLTWYQQKPGKAPKLLIYAASSLQSGVPSRFSGSGSGTDFTLTISSLQPEDFATYYCQAYDYSLSGYVFGGGTKVEIKRTVAAPSVFIFPPSDEQLKSGTASVVCLLNNFYPREAKVQWKVDNALQSGNSQESVTEQDSKDSTYSLSSTLTLSKADYEKHKVYACEVTHQGLSSPVTKSFNRGEC | 1.84 |  |  | 1.24 | 9.4 |  |  |  | 1.24 | 1.84 |  | 9 | 6.4 | 0.9 |
